Data from patent US20100151566A1.

B1: Fab 2H1-32 (Fab, V domains shown)
VH: QVQLVQSGAEVKKPGESLKISCKGSGYSFTSYWIGWVRQMPGKGLEWMGIIYPGDSDTRYSPSFQGQVTISADKSISTAYLQWSSLKASDTAMYYCARLVVRDTEIWGQGTMVTVSS
VL: QAVVTQEPSLTVSPGGTVTLTCASSIGAVTSGNYPNWFQQRPGQPPRALIYSTSNKHSWTPARFSGSLLGGKAALTLSGAQPEDEAEYYCLLSYSGARPVFGGGTKLTVLG
B2: phage clone 2H1-F (scFv, not shown: large carriers; small tags and cut ends)
scFv: QQVQLVQSGAEVKKPGESLKISCKGSGYSFTSYWIGWVRQMPGKGLEWMGIIYPGDSDTRYSPSFQGQVTISADKSISTAYLQWSSLKASDTAMYYCARLVVRDTEIWGQGTMVTVSSAPQAKSSGSGSESKVDQAVVTQEPSLTVSPGGTVTLTCASSIGAVTSGNYPNWFQQRPGQPPRALIYSTSNKHSWTPARFSGSLLGGKAALTLSGAQPEDEAEYYCLLSYSGARPVFGGGTKLTVLG

Assays:
[1] = target: Isoform 121 of human VEGF-A (Peprotech) (human) (UniProt P15692); test: ELISA on coated antigen, 20 µg/mL, 9E10 detection
[2] = target: Isoform 121 of human VEGF-A (Peprotech) (human) (UniProt P15692); test: ELISA on coated antigen, 2 µg/mL, 9E10 detection
[3] = target: Isoform 121 of human VEGF-A (Peprotech) (human) (UniProt P15692); test: ELISA on coated antigen, 0.2 µg/mL, 9E10 detection
[4] = target: Isoform 121 of human VEGF-A (Peprotech) (human) (UniProt P15692); test: phage ELISA on coated VEGF-A 121, competitor KDR-Fc 2 µg/mL
[5] = target: Isoform 121 of human VEGF-A (Peprotech) (human) (UniProt P15692); test: phage ELISA on coated VEGF-A 121, without KDR-Fc
[6] = target: Human VEGF-A treated with DTT (reduced) (human) (UniProt P15692); test: phage ELISA on DTT-reduced VEGF-A 121
[7] = target: Isoform 121 of human VEGF-A (Peprotech) (human) (UniProt P15692); test: phage ELISA on native VEGF-A 121

Isoform 121 of human VEGF-A (Peprotech) (human), sequence (P15692 other isoform, or with tags, fused parts or gaps): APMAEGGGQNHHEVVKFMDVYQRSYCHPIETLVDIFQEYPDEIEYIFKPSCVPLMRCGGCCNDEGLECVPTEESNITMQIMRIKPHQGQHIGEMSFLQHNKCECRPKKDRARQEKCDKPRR
Human VEGF-A treated with DTT (reduced) (human), sequence (P15692 other isoform, or with tags, fused parts or gaps limits assumed): as the sequence (P15692 other isoform, or with tags, fused parts or gaps) above

Binder	Optical Density (492 nm) [1]	Optical Density (492 nm) [2]	Optical Density (492 nm) [3]	Optical Density (492 nm) [4]	Optical Density (492 nm) [5]	Optical Density (492 nm) [6]	Optical Density (492 nm) [7]
B1	1.02 OD 492 nm	1.09 OD 492 nm	0.675 OD 492 nm				
B2				0.577 OD 492 nm	1.15 OD 492 nm	0.103 OD 492 nm	1.25 OD 492 nm
